Measured values: IntAct's records for PubMed 25910212

B1: Myelin proteolipid protein (Homo sapiens), P60201-2 (parent)
chain: MGLLECCARCLVGAPFASLVATGLCFFGVALFCGCGHEALTGTEKLIETYFSKNYQDYEYLINVIHAFQYVIYGTASFFFLYGALLLAEGFYTTGAVRQIFGDYKTTICGKGLSATFVGITYALTVVWLLVFACSAVPVYIYFNTWTTCQSIAFPSKTSASIGSLCADARMYGVLPWNAFPGKVCGSNLLSICKTAEFQMTFHLFIAAFVGAAATLVSLLTFMIAATYNFAVLKLMGRGTKF
partner: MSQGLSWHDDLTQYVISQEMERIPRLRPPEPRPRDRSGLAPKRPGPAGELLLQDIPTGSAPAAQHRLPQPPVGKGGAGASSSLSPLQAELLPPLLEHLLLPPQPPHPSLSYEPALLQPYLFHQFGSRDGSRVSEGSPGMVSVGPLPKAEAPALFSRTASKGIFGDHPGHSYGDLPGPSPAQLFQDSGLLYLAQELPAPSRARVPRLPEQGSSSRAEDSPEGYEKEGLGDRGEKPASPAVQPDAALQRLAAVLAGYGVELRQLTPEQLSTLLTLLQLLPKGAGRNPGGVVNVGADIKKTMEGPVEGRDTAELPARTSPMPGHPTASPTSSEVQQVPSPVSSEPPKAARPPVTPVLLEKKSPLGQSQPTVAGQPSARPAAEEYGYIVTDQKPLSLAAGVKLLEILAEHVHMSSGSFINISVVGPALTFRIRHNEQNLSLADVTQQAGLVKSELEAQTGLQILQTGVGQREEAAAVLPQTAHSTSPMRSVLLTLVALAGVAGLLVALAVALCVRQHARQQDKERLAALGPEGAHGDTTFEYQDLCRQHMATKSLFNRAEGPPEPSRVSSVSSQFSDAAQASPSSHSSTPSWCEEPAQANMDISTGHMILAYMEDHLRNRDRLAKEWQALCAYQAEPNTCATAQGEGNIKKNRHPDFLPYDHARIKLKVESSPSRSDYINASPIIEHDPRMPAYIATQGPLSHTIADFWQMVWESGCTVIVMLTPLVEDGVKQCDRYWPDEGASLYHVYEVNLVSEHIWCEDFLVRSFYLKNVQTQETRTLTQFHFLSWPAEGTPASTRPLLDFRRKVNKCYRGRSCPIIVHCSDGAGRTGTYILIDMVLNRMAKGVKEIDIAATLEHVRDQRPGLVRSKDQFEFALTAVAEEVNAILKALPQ
B2: Phakinin (Homo sapiens), Q13515 (parent)
chain: MSERRVVVDLPTSASSSMPLQRRRASFRGPRSSSSLESPPASRTNAMSGLVRAPGVYVGTAPSGCIGGLGARVTRRALGISSVFLQGLRSSGLATVPAPGLERDHGAVEDLGGCLVEYMAKVHALEQVSQELETQLRMHLESKATRSGNWGALRASWASSCQQVGEAVLENARLMLQTETIQAGADDFKERYENEQPFRKAAEEEINSLYKVIDEANLTKMDLESQIESLKEELGSLSRNYEEDVKLLHKQLAGCELEQMDAPIGTGLDDILETIRIQWERDVEKNRVEAGALLQAKQQAEVAHMSQTQEEKLAAALRVELHNTSCQVQSLQAETESLRALKRGLENTLHDAKHWHDMELQNLGAVVGRLEAELREIRAEAEQQQQERAHLLARKCQLQKDVASYHALLDREESG
B3: Tribbles homolog 3 (Homo sapiens), Q96RU7 (parent)
chain: MRATPLAAPAGSLSRKKRLELDDNLDTERPVQKRARSGPQPRLPPCLLPLSPPTAPDRATAVATASRLGPYVLLEPEEGGRAYQALHCPTGTEYTCKVYPVQEALAVLEPYARLPPHKHVARPTEVLAGTQLLYAFFTRTHGDMHSLVRSRHRIPEPEAAVLFRQMATALAHCHQHGLVLRDLKLCRFVFADRERKKLVLENLEDSCVLTGPDDSLWDKHACPAYVGPEILSSRASYSGKAADVWSLGVALFTMLAGHYPFQDSEPVLLFGKIRRGAYALPAGLSAPARCLVRCLLRREPAERLTATGILLHPWLRQDPMPLAPTRSHLWEAAQVVPDGLGLDEAREEEGDREVVLYG
B4: Acetylcholine receptor subunit gamma (Homo sapiens), P07510-2 (parent)
chain: MHGGQGPLLLLLLLAVCLGAQGRNQEERLLADLMQNYDPNLRPAERDSDVVNVSLKLTLTNLISLNEREEALTTNVWIEMQWCDYRLRWDPRDYEGLWVLRVPSTMVWRPDIVLENKSQTYSTNEIDLQLSQEDGQTIEWIFIDPEAFTENGEWAIQHRPAKMLLDPAAPAQEAGHQKVVFYLLIQRKPLFYVINIIAPCVLISSVAILIHFLPAKAGGQKCTVAINVLLAQTVFLFLVAKKVPETSQAVPLISKYLTFLLVVTILIVVNAVVVLNVSLRSPHTHSMARGVRKVFLRLLPQLLRMHVRPLAPAAVQDTQSRLQNGSSGWSITTGEEVALCLPRSELLFQQWQRQGLVAAALEKLEKGPELGLSQFCGSLKQAAPAIQACVEACNLIACARHQQSHFDNGNEEWFLVGRVLDRVCFLAMLSLFICGTAGIFLMAHYNRVPALPFPGDPRPYLPSPD
B5: von Hippel-Lindau disease tumor suppressor (Homo sapiens), P40337-2 (parent)
chain: MPRRAENWDEAEVGAEEAGVEEYGPEEDGGEESGAEESGPEESGPEELGAEEEMEAGRPRPVLRSVNSREPSQVIFCNRSPRVVLPVWLNFDGEPQPYPTLPPGTGRRIHSYRVYTLKERCLQVVRSLVKPENYRRLDIVRSLYEDLEDHPNVQKDLERLTQERIAHQRMGD

Variants of: B1
Details: with PTPRN

Variant | effect of a mutation on the interaction
W128L | disrupting interaction strength
A213E | disrupting interaction strength

Variants of: B2
Details: with atf4_human ATF4, P18848
Target sequence in this assay (P18848 whole entry): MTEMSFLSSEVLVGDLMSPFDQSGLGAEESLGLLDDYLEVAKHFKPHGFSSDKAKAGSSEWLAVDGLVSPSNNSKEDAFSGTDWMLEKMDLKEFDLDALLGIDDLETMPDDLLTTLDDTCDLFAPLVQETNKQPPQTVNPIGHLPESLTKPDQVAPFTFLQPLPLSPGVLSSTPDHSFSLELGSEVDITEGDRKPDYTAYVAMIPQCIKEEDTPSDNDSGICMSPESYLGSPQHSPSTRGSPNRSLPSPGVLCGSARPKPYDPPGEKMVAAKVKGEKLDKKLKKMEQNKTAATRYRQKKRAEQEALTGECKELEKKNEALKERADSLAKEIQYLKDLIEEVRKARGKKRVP

Variant | effect of a mutation on the interaction
R339H | with no effect
A407D | with no effect

Variants of: B2
Details: with syce1_human SYCE1, Q8N0S2
Sequence of syce1_human SYCE1, Q8N0S2 (Q8N0S2 whole entry): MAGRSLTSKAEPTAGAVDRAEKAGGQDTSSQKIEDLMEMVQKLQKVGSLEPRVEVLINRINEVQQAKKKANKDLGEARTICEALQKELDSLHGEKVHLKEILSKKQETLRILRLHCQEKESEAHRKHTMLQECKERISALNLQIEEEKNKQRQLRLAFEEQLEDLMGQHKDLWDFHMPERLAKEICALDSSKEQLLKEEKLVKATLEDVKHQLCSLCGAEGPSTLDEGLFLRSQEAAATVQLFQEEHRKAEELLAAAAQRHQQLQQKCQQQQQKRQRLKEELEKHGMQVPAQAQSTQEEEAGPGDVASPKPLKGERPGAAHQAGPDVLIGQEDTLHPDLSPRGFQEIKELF

Variant | effect of a mutation on the interaction
R339H | with no effect
A407D | with no effect

Variants of: B3
Details: with atf4_human ATF4, P18848
Target sequence in this assay (P18848 whole entry): as the sequence (P18848 whole entry) above

Variant | effect of a mutation on the interaction
Q84R | with no effect

Variants of: B3
Details: with mdfi_human MDFI
Target sequence in this assay (Q99750 whole entry): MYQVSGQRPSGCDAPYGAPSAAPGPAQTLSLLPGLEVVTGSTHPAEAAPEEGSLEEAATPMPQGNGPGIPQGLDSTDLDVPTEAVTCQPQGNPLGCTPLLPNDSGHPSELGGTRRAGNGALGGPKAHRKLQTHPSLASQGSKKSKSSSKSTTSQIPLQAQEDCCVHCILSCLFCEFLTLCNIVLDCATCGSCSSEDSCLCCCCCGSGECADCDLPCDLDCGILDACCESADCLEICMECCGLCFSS

Variant | effect of a mutation on the interaction
Q84R | with no effect

Variants of: B4
Details: with mdfi_human MDFI
Target sequence in this assay (Q99750 whole entry): as above

Variant | effect of a mutation on the interaction
R86C | disrupting interaction strength
V107G | disrupting interaction strength
R187C | disrupting interaction strength

Variants of: B4
Details: with nt2na_human NOTCH2NLA

Variant | effect of a mutation on the interaction
R86C | disrupting interaction strength
V107G | disrupting interaction strength
R187C | disrupting interaction strength

Variants of: B4
Details: with k1h1_human KRT31, Q15323
Sequence of k1h1_human KRT31, Q15323 (Q15323 whole entry): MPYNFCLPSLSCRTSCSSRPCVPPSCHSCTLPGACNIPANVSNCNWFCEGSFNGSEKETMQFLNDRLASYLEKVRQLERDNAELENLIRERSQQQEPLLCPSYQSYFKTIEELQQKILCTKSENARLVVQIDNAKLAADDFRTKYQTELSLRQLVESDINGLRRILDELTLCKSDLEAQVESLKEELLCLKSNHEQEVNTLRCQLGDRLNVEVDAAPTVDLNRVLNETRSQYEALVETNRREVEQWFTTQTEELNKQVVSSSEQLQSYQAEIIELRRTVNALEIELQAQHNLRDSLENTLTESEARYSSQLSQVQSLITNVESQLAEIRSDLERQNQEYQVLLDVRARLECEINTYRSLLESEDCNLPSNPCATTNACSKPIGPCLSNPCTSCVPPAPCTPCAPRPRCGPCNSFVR

Variant | effect of a mutation on the interaction
R86C | disrupting interaction strength
V107G | disrupting interaction strength
R187C | disrupting interaction strength

Variants of: B4
Details: with meox2_human MEOX2, P50222
Sequence of meox2_human MEOX2, P50222 (P50222 whole entry): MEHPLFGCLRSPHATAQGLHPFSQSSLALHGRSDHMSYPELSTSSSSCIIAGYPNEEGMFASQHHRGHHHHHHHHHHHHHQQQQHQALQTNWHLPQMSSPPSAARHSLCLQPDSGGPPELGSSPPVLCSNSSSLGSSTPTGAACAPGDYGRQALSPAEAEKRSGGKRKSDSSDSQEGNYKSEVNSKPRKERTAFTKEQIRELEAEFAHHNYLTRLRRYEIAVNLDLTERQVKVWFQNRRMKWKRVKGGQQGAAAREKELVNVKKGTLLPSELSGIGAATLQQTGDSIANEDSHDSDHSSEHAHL

Variant | effect of a mutation on the interaction
R86C | disrupting interaction strength
V107G | disrupting interaction strength
R187C | disrupting interaction strength

Variants of: B5
Details: with mdfi_human MDFI
Target sequence in this assay (Q99750 whole entry): as the sequence (Q99750 whole entry) above

Variant | effect of a mutation on the interaction
S38P | disrupting interaction strength
S111I | disrupting interaction strength
